In patent US20200262920A1 (AMPHIVENA THERAPEUTICS, published 2020):
Several values for one entry are separate records, joined by “and”; a condition that tells them apart may be missing. Equal entries are not always repeated.

Experiments:
human CD33 [1] = target: T1, human CD33 (human, UniProt P20138 18-364); assay: flow cytometry titration, HL-60 cells
T1 construct: whole, on cells; also called huCD33; CD33 on HL-60, KG-1, KG-1a, U-937 cells
Procedure, shortened: (§1)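 Cells titrated with CD33/CD3 2×2 T-cell engagers, detected via anti-His then FITC anti-mouse IgG on ice, with PI exclusion of dead cells. Background-subtracted mean fluorescence fit to one-site binding for KD; cross-reactivity ratio from KDs on CHO cells expressing recombinant cynomolgus or human CD33.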

human CD3 [2] = target: T2, human CD3 (human, UniProt P07766 23-207; P09693 23-182; P04234 22-171; P20963 22-164); assay: cell-based or functional assay
T2 sequence (P07766 23-207, chain 1 of 4): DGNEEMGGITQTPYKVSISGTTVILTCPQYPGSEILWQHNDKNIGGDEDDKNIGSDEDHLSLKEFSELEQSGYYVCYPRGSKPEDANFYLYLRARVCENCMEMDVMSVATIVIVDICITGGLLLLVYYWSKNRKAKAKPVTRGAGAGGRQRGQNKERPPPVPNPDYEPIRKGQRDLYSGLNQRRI
T2 sequence (P09693 23-182, chain 2 of 4): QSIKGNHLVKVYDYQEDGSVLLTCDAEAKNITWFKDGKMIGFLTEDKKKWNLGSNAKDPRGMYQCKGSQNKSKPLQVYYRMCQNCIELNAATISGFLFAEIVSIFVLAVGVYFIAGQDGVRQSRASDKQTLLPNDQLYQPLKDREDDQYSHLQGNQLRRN
T2 sequence (P04234 22-171, chain 3 of 4): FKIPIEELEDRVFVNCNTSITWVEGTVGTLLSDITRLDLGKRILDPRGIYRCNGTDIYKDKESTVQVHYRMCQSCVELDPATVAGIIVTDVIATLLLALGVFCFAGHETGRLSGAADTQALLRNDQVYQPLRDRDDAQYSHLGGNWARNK
T2 sequence (P20963 22-164, chain 4 of 4): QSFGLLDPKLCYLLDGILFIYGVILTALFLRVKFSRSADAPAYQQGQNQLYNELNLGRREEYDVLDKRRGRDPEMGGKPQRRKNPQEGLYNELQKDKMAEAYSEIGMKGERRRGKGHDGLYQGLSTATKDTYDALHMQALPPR

human CD33 [3] = target: T1, human CD33; assay: cell-based or functional assay
human CD33 [4] = target: T1, human CD33; assay: flow cytometry titration, KG-1 cells
Procedure, shortened: as §1

human CD33 [5] = target: T1, human CD33; assay: flow cytometry, HL-60 cells
human CD33 [6] = target: T1, human CD33; assay: cell-based or functional assay; remark: listed apart in the source
human CD33 [7] = target: T1, human CD33; assay: cell-based or functional assay; remark: listed apart in the source
human CD3 [8] = target: T2, human CD3; assay: flow cytometry, human T-cells
human CD33 [9] = target: T1, human CD33; assay: cell-based or functional assay; remark: listed apart in the source
human CD33 [10] = target: T1, human CD33; assay: cell-based or functional assay; remark: listed apart in the source
human CD3 [11] = target: T2, human CD3; assay: flow cytometry titration, T cells (human CD3+)
human CD33 [12] = target: T1, human CD33; assay: flow cytometry titration, U-937 cells
Procedure, shortened: as §1

cynomolgus CD33 = target: T3, cynomolgus CD33 (cynomolgus, UniProt A0A7N9ICR5 17-359); assay: ratio of KD by flow cytometry on CHO cells expressing cynomolgus CD33 vs human CD33
T3 construct: whole, on cells; also called cynoCD33; cyno CD33
Method: Cells were incubated with 100 μL of serial dilutions of CD33/CD3 2×2 T-cell engagers. After washing three times with FACS buffer the cells were incubated with 0.1 mL of 10 μg/mL mouse monoclonal anti-His antibody in the same buffer for 45 min on ice. After a second washing cycle, the cells were incubated with 0.1 mL of 15 μg/mL FITC-conjugated goat anti-mouse IgG antibodies under the same conditions as before. As a control, cells were incubated with the anti-His IgG followed by the FITC-conjugated goat anti-mouse IgG antibodies without anti-CD33 2×2 T-cell engagers. The cells were then washed again and resuspended in 0.2 mL of FACS buffer containing 2 μg/mL propidium iodide (PI) in order to exclude dead cells. The fluorescence of 1×10⁴ living cells was measured using a Beckman-Coulter FC500 MPL flow cytometer using the MXP software (Beckman-Coulter, Krefeld, Germany) or a Millipore Guava EasyCyte flow cytometer using the Incyte software (Merck Millipore, Schwalbach, Germany). Mean fluorescence intensities of the cell samples were calculated using CXP software (Beckman-Coulter, Krefeld, Germany) or Incyte software (Merck Millipore, Schwalbach, Germany). After subtracting the fluorescence intensity values of the cells stained with the secondary and tertiary reagents alone the values were used for calculation of the KD values with the equation for one-site binding (hyperbola) of the GraphPad Prism (version 6.00 for Windows, GraphPad Software, La Jolla Calif. USA).
CD3 binding affinity and crossreactivity were evaluated in titration and flow cytometric experiments on CD3⁺ Jurkat cells (provided by Dr. Moldenhauer, DKFZ Heidelberg; human acute T-cell leukemia) and the cynomolgus CD3⁺ HSC-F cell line (JCRB, cat.:JCRB 1164). […] The KD ratio of crossreactivity was calculated using the KD values determined on the CHO cell lines expressing either recombinant human or recombinant cynomolgus antigens.

T1 sequence (P20138 18-364): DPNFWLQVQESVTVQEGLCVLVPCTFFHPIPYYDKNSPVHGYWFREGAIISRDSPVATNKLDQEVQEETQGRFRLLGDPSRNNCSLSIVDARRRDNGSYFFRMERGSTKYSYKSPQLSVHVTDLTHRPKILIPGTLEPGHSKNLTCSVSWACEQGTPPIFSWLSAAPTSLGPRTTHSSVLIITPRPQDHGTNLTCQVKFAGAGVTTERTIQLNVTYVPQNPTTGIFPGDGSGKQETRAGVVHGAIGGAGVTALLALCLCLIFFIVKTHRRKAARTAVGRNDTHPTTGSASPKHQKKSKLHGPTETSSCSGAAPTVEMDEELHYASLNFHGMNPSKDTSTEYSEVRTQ

| Binder | Kd (human CD33 [1]) | CD25 Induction EC50 (human CD3 [2]) | CD69 Induction EC50 (human CD3 [2]) | T cell Proliferation in PBMC EC50 (human CD3 [2]) | EC50 on HL-60 (cytotoxicity) (human CD33 [3]) | Kd (human CD33 [4]) | Kd (human CD33 [5]) | Kd (human CD3 [8]) | IC50, lysis of KG-1 cells with human T cells (human CD33 [9]) | Kd (human CD3 [11]) | Kd (human CD33 [12]) | other results |
| --- | --- | --- | --- | --- | --- | --- | --- | --- | --- | --- | --- | --- |
| CD33/CD3 2×2 T-cell engager 16 (bispecific antibody, Non-covalent homodimer; also called AMV564; AMV 564) DIQMTQSPSSLSASVGDRVTITCRSSTGAVTTSNYANWVQQKPGKAPKALIGGTNKRAPGVPSRFSGSLIGDKATLTISSLQPEDFATYYCALWYSNLWVFGQGTKVEIKGGSGGSQVQLVQSGAEVKKPGASVKVSCKASGYTFTSYDINWVRQAPGQGLEWMGWMNPNSGNTGFAQKFQGRVTMTRDTSTSTVYMELSSLRSEDTAVYYCARDRANTDYSLGMDVWGQGTLVTVSSGGSGQSVLTQPPSASGTPGQRVTISCSGSRSNIGSNTVNWYQQLPGTAPKLLIYGNNQRPSGVPDRFSGSKSGTSASLAISGLQSEDEADYYCATWDDSLIGWVFGGGTKLTVLGGSGGSEVQLVESGGGLVQPGGSLRLSCAASGFTFSTYAMNWVRQAPGKGLEWVGRIRSKYNNYATYYADSVKDRFTISRDDSKNSLYLQMNSLKTEDTAVYYCARHGNFGNSYVSYFAYWGQGTLVTVSSAAAGSHHHHHH | 300 pM | 1 pM | 2 pM | 3 pM | 1.5 pM | 200 pM | 300 pM | 5100 pM | ~0.5 pM | 2100 pM | 300 pM | EC50, calcein-release lysis of HL-60, 30 min incubation (human CD33 [6]): 4.8 pM; EC50, calcein-release lysis of HL-60, 60 min incubation (human CD33 [6]): 2.5 pM; EC50, calcein-release lysis of HL-60, 120 min incubation (human CD33 [6]): 1.6 pM; EC50, calcein-release lysis of HL-60, 180 min incubation (human CD33 [6]): 1.6 pM; EC50, calcein-release lysis of HL-60, 240 min incubation (human CD33 [6]): 1.5 pM; EC50, calcein-release lysis of HL-60, 300 min incubation (human CD33 [6]): 1.6 pM; EC50 (mean), redirected lysis of BV-173 cells (human CD33 [7]): 3.2 pM; EC50 (mean), redirected lysis of CHO-CD33 cells (human CD33 [7]): 24 pM; EC50 (mean), redirected lysis of HL-60 cells (human CD33 [7]): 1.6 pM; EC50 (mean), redirected lysis of K562 cells (human CD33 [7]): 4.8 pM; EC50 (mean), redirected lysis of KASUMI-1 cells (human CD33 [7]): 2.4 pM; EC50 (mean), redirected lysis of KG-1 cells (human CD33 [7]): 1.9 pM; EC50 (mean), redirected lysis of RPMI-8226 cells (human CD33 [7]): 2.8 pM; EC50 (mean), redirected lysis of THP-1 cells (human CD33 [7]): 6 pM; EC50 (mean), redirected lysis of U-937 cells (human CD33 [7]): 1.3 pM; IC50, lysis of KG-1 cells (separate experiment) (human CD33 [9]): 5 pM; EC50, cytotoxicity on HL-60 (human CD33 [10]): 1.5 pM and 158 pg/mL; EC50, cytotoxicity on KG-1 (human CD33 [10]): 1.8 pM and 189 pg/mL; EC50, cytotoxicity on U-937 (human CD33 [10]): 1.9 pM and 200 pg/mL; EC50, cytotoxicity, mean of HL-60, U-937, KG-1 (human CD33 [10]): 1.7 pM and 179 pg/mL |
| CD33/CD3 2×2 T-cell engager 19 (bispecific antibody, Non-covalent homodimer) DIQMTQSPSSLSASVGDRVTITCRSSTGAVTTSNYANWVQQKPGKAPKALIGGTNKRAPGVPSRFSGSLIGDKATLTISSLQPEDFATYYCALWYSNLWVFGQGTKVEIKGGSGGSQVQLVQSGAEVKKPGASVKVSCKASGYTFTSYYMHWVRQAPGQGLEWMGIINPSGGSTSYAQKFQGRVTMTRDTSTSTVYMELSSLRSEDTAVYYCARDVVPAAIDYYGMDVWGQGTTVTVSSGGSGQSVLTQPPSASGTPGQRVTISCSGSSSNIGSNTVNWYQQLPGTAPKLLIYSDNQRPSGVPDRFSGSKSGSSASLAISGLQSDDEADYYCATWDDSLNGAVFGGGTKLTVLGGSGGSEVQLVESGGGLVQPGGSLRLSCAASGFTFSTYAMNWVRQAPGKGLEWVGRIRSKYNNYATYYADSVKDRFTISRDDSKNSLYLQMNSLKTEDTAVYYCARHGNFGNSYVSYFAYWGQGTLVTVSSAAAGSHHHHHH | 2800 pM | 9 pM | 5 pM | 6 pM | 5.7 pM | 3600 pM | 2800 pM | 6300 pM | ~5 pM | 6300 pM | 5400 pM | KD ratio cynoCD33/huCD33 (cynomolgus CD33): 37.3 |
